In test [1] the target is T1, His6-GATE16 (UniProt P60520 1-117).
T1 construct: GATE16, LC3/GABARAP-family protein; also called monomeric His6-GATE16; His6-tagged GATE16; source: E. coli BL21 Tuner DE3, purified (Ni-NTA, SEC)
Kind of test: fluorescence polarisation; direct anisotropy: 10 nM labeled ATG4B peptide with increasing His6-GATE16; 20 mM Tris, 150 mM NaCl, pH 7.5; RT; apparent KD. As to conditions: both partners purified. (Fluorescence polarisation rises when a labelled molecule tumbles more slowly, as on binding a larger partner.)

Test [2] concerns the target T2, monomeric GATE16 (mGATE16) (UniProt P60520 1-117).
T2 construct: GATE16, LC3/GABARAP-family protein, from pGex-4T-2_GATE-16 after thrombin cleavage; source: E. coli BL21 Tuner DE3, purified as GST-GATE16, GST removed with thrombin, SEC
Kind of test: fluorescence polarisation; competition anisotropy: 1.5 μM mGATE16 with 10 nM labeled ATG4B peptide; increasing unlabeled peptide; 20 mM Tris, 150 mM NaCl, pH 7.5; RT. As to conditions: both partners purified.

No end group written: not given here. AF488 = AF Dye 488 fluorescent label

T2 sequence (P60520 whole entry): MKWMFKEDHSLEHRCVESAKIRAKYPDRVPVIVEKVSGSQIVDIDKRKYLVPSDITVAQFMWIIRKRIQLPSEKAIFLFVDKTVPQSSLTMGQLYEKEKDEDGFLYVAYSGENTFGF
T1 sequence (P60520 whole entry): as above

B1: dye-labeled ATG4B LIR peptide (EDEDFEILSL) (peptide)
peptide: AF488-EDEDFEILSL
notes: also called fluorescently labeled ATG4B peptide; labeled ATG4B peptide; source: synthetic peptide (MIT Biopolymers Laboratory, HPLC-purified)
Take B1: the binding result in test [1] and in test [2] was “binds” each time.

The record behind these values is paper PMC12872393 (Life Science Alliance, 2026).
